Each block holds one molecule with its values, some of them ahead of it.
Columns and labels:
Assay in all cases: cross-linking; VSMC lysate (700 ug protein in NP40 buffer) fixed with 0.1% glutaraldehyde on ice for 10 min, then Western blot; cells with or without PDGF-BB (10 ng/ml, different durations), TSA or NAM, or transduced with Ad-PFKL WT/K563Q/K563R
HA-PFKL K563R = HA-PFKL K563R (UniProt P17858)
HA-PFKL WT = HA-PFKL WT (UniProt P17858)
[1] = molecular target: the molecule itself

- stoichiometry N (HA-PFKL K563R): 4
Molecule: HA-PFKL K563R (from UniProt P17858 1-780) (enzyme)

- stoichiometry N (HA-PFKL WT): 4
Molecule: HA-PFKL WT (from UniProt P17858 1-780) (enzyme)

B1: phosphofructokinase, liver type (PFKL) (enzyme, rat (endogenous in primary rat VSMCs), UniProt P30835 1-780, looked up)
chain: MATVDLEKLRMSGAGKAIGVLTSGGDAQGMNAAVRAVTRMGIYVGAKVFLIYEGYEGLVEGGENIKPANWLSVSNIIQLGGTIIGSARCKAFTTREGRLAAAYNLLQHGITNLCVIGGDGSLTGANIFRNEWGSLLEELVKEGKISESTAQNYAHLSIAGLVGSIDNDFCGTDMTIGTDSALHRIMEVIDAITTTAQSHQRTFVLEVMGRHCGYLALVSALASGADWLFIPEAPPEDGWENFMCERLGETRSRGSRLNIIIIAEGAIDRHGKPISSSYVKDLVVQRLGFDTRVTVLGHVQRGGTPSAFDRVLSSKMGMEAVMALLEATPDTPACVVSLSGNQSVRLPLMECVQVTKDVQKAMDEKRFDEAIQLRGRSFENNWKIYKLLAHQKVSKEKSNFSLAILNVGAPAAGMNAAVRSAVRTGISEGHTVYVVHDGFEGLAKGQVQEVGWHDVAGWLGRGGSMLGTKRTLPKPHLEAIVENLRTYNIHALLVIGGFEAYEGVLQLVEARGRYEELCIVMCVIPATISNNVPGTDFSLGSDTAVNAAMESCDRIKQSASGTKRRVFIVETMGGYCGYLATVTGIAVGADAAYVFEDPFNIHDLKANVEHMTEKMKTDIQRGLVLRNEKCHEHYTTEFLYNLYSSEGRGVFDCRTNVLGHLQQGGAPTPFDRNYGTKLGVKAMLWMSEKLRDVYRKGRVFANAPDSACVIGLRKKVVAFSSVTELKKETDFEHRMPREQWWLNLRLMLKMLAHYRISMADYVSGELEHVTRRTLSIDKGF
notes: phosphofructokinase, liver type (PFKL), endogenous in primary VSMCs from the thoracic aorta of Sprague-Dawley rats; Acetylation level of the endogenous protein changes with PDGF-BB, TSA or NAM; sites on the endogenous protein were not mapped directly; also called endogenous PFKL; PFK1 liver isoform; source: endogenous, primary rat VSMC lysate (NP-40 buffer) or fixed VSMCs
- stoichiometry N [1]: 4

Reference: paper PMC12828377, “HDAC6-mediated PFKL deacetylation enhances aerobic glycolysis and promotes VSMC proliferation” (The Journal of Biological Chemistry, 2025)
